# B1: 18S-30/-1 (dsDNA)
# DNA 1: GGCGCCCGGCCCGCGGCGCCCGCGCCCGGC
# DNA 2: GCCGGGCGCGGGCGCCGCGGGCCGGGCGCC
# B2: myb2-30/-1 (dsDNA)
# DNA 1: TACTAAAATAATAATTACTCTGTACTGCTA
# DNA 2: TAGCAGTACAGAGTAATTATTATTTTAGTA
# B3: cwp1-90/-46 (dsDNA)
# DNA 1: CTGGCTAACAGTCTACAGTCTACAATTTACAGTATACAATCTACA
# DNA 2: TGTAGATTGTATACTGTAAATTGTAGACTGTAGACTGTTAGCCAG
# B4: poly(A) (dsDNA)
# DNA 1: AAAAAAAAAAAAAAAAAAAAAAA
# DNA 2: TTTTTTTTTTTTTTTTTTTTTTT
# B5: poly(A) with T insertion (dsDNA)
# DNA 1: AAAAAAAAAAATAAAAAAAAAAA
# DNA 2: TTTTTTTTTTTATTTTTTTTTTT
# B6: cwp2-60/-31 (dsDNA)
# DNA 1: TAGACTGATGCTGTAGAGGTCAACAGATAA
# DNA 2: TTATCTGTTGACCTCTACAGCATCAGTCTA
# B7: poly(A) with TT insertion (dsDNA)
# DNA 1: AAAAAAAAAAATTAAAAAAAAAA
# DNA 2: TTTTTTTTTTAATTTTTTTTTTT
# B8: cwp3-60/-31 (dsDNA)
# DNA 1: GTAGACTTTGAGTTACTTAGCTCTACAGTT
# DNA 2: AACTGTAGAGCTAAGTAACTCAAAGTCTAC
# B9: cwp2-30/+8 (dsDNA)
# DNA 1: CAGCAGCTCAACAGTGGCTGGGAAAATAAAATGATCGC
# DNA 2: GCGATCATTTTATTTTCCCAGCCACTGTTGAGCTGCTG
# B10: ran-51/-20 (dsDNA)
# DNA 1: TAAAATAAATTAAATCGAAATTAAAACTTTAA
# DNA 2: TTAAAGTTTTAATTTCGATTTAATTTATTTTA
# B11: cwp1-45/-1 (dsDNA)
# DNA 1: GTTTACAACTCTCAGATCAAGAAACACAGAAATAAAATATCAGGG
# DNA 2: CCCTGATATTTTATTTCTGTGTTTCTTGATCTGAGAGTTGTAAAC
# Target: T1, MBF1 (Giardia lamblia, UniProt A8BZ03 1-107)
# T1 sequence: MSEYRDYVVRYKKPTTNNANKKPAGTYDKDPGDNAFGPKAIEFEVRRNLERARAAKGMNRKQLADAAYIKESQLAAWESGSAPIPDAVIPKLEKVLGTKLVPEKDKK
# Assay: EMSA; EMSA, 5 ng purified protein, 5'-end-labeled ds oligonucleotides, 6% polyacrylamide gel; buffer, salt, pH and temperature not given (cited to ref 19)
# Details: protein: recombinant; tags: C-terminal V5 and His (pET101/D-TOPO)
row,Binder,binding result
1,B1,no binding

# Same assay, conditions: protein: recombinant; tags: C-terminal V5 and His (pET101/D-TOPO); label: 5'-32P
row,Binder,binding result
1,B2,binds
2,B3,binds
3,B4,binds
4,B5,binds
5,B6,binds
6,B7,binds
7,B8,binds
8,B9,binds
9,B10,binds

# Target: T1, MBF1
# Assay: EMSA; supershifted by anti-V5-HRP; competed by 200-fold cold cwp1-45/-1; EMSA, 5 ng purified protein, 5'-end-labeled ds oligonucleotides, 6% polyacrylamide gel; buffer, salt, pH and temperature not given (cited to ref 19)
# Details: protein: recombinant; tags: C-terminal V5 and His (pET101/D-TOPO); label: 5'-32P
row,Binder,binding result
1,B11,binds

# From PMC7866390, “A Novel Multiprotein Bridging Factor 1-Like Protein Induces Cyst Wall Protein Gene Expression and Cyst Differentiation in Giardia lamblia”
